Measurements: publication PMC4813465, “Selective Inhibition of the Mitochondrial Permeability Transition Pore Protects against Neurodegeneration in Experimental Multiple Sclerosis” (The Journal of Biological Chemistry, 2015)

Biological target: cyclophilin D (CypD, PPIF) with a K133I mutation

Question: Which half-maximal inhibition of Ca2+-induced PT pore opening, calcium retention capacity (CRC) assay on isolated liver mitochondria does the source give for cyclosporine (cyclosporin A) (peptide) here?
Answer: 40 nM
